Assay results taken from US20120207760A1.
Values joined by “and” are separate entries in the source; they are usually repeats but may differ in a detail not shown here. Identical values can stand only once.

Target: M2 protein of influenza A/Hong Kong/483/97 (H5N1) (Influenza A virus A/Hong Kong/483/97)

Chain of TCN-032 (8I10) (antibody) (VH): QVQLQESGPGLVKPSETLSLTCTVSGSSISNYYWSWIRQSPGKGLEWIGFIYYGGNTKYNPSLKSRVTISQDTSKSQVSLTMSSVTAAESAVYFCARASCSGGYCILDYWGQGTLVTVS
Chain of TCN-032 (8I10) (antibody) (VL): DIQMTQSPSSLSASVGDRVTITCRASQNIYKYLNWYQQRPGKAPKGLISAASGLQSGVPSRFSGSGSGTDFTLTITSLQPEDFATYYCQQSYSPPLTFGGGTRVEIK

Question: TCN-032 (8I10) (antibody) was tested. Which FACS M2-HK MFI did it give?
Answer: 754 MFI and 1080 MFI
